Here are results for one molecule from patent US7205275 (dated 2007).

Where no end group is shown, it is not given here. [ ]: non-standard residue; d: D form. Fc = immunoglobulin Fc domain fused to the peptide (peptibody)

For assay [1], the target named is T1, mouse Ang-2 (mouse, UniProt O35608).
T1 chain: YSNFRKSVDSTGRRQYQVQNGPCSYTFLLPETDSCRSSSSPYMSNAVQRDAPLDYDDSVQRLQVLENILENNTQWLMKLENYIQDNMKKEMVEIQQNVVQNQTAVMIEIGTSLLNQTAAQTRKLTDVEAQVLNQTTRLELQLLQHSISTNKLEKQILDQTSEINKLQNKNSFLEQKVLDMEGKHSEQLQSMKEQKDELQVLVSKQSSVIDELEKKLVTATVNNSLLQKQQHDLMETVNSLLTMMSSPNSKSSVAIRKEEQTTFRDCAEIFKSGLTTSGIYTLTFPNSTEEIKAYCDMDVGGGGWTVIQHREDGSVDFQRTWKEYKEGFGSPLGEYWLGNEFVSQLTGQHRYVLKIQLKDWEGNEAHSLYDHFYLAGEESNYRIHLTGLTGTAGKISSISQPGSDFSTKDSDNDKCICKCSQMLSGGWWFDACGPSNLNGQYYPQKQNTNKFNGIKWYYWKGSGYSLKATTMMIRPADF
Description: ELISA. In general terms: ELISA stands for enzyme-linked immunosorbent assay.

Assay [2] addresses T2, human Ang-2 (human, UniProt O15123).
T2 chain: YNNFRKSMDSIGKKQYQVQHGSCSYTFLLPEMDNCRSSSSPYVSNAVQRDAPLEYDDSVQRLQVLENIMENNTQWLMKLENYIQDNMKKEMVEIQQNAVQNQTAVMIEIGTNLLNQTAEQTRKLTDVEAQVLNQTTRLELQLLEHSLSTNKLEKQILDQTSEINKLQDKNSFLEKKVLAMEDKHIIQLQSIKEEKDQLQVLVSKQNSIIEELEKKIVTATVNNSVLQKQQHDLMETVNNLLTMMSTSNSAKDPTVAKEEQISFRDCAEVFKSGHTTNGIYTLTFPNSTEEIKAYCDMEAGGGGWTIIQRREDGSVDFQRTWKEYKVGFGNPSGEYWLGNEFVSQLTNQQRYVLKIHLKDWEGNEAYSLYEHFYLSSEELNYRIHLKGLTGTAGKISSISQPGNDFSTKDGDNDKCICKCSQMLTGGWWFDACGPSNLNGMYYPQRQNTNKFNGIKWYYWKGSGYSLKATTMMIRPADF
Description: ELISA.

For assay [3], the target named is T3, human Ang-1 (human, UniProt Q15389).
T3 chain: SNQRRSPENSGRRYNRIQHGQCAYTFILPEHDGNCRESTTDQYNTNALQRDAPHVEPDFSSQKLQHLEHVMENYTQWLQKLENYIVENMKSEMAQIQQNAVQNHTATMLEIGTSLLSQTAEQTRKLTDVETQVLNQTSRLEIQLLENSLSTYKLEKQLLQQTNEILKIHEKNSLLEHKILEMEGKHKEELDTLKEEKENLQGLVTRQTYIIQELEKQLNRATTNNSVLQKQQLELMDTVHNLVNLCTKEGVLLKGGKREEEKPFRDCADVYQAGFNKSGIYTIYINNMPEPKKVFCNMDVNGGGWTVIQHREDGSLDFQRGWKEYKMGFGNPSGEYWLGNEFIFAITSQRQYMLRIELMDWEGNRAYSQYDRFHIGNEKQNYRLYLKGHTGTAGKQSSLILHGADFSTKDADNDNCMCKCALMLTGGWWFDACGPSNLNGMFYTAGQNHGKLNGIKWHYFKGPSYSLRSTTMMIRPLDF
Kind of assay: competition ELISA vs Tie-2.

The target in assay [4] is T2, human Ang-2. Kind of assay: competition ELISA vs Tie-2.
Assay [5] deals with T3, human Ang-1. Kind of assay: ELISA.
The target in assay [6] is T1, mouse Ang-2. Description: SPR. Background: Surface plasmon resonance follows binding to a sensor surface in real time, without labels.
Assay [7] has as its target T1, mouse Ang-2. Description: competition ELISA vs Tie-2.
For assay [8], the target named is T2, human Ang-2. Description: SPR.

B1: Con4 (N) (peptide)
chain: MGAQQEECEWDPWTCEHMLEGGGGG[Fc]
modifications: not fully specified (bridges); printed as MGAQQEECEWDPWTCEHMLEGGGGG-Fc; cysteine pairing not given here; also: Fc fusion domain at position 26
For orientation: EC50 means the concentration that produces a half-maximal response. Higher therefore signals a less potent agent. The term IC50 denotes the concentration at which inhibition is half-maximal. As usually defined, the Kd is a measure of binding affinity in units of concentration. Higher therefore signals lower affinity. On to B1, for which the results for the EC50 with mouse Ang-2 [1] and in the assay with human Ang-2 [2] were 0.07 nM and 0.03 nM, respectively. Further, the IC50 in the assay with human Ang-1 [3] was greater than 1000 nM; with human Ang-2 [4], 0.85 nM; in the assay with mouse Ang-2 [7], 0.72 nM. In addition, the binding result with human Ang-1 [5] is “no binding”. For the same molecule, the Kd with mouse Ang-2 [6] is 0.6 nM; in the assay with human Ang-2 [8] it was 0.67 nM.
